Reference: patent publication US11149077B2, “Targeted therapeutics based on engineered proteins for tyrosine kinases receptors, including IGF-IR” (BRISTOL-MYERS SQUIBB COMPANY, priority 2006, dated 2021)

Key:
human IGF-IR = molecular target: T1, human IGF-IR (Homo sapiens, UniProt P08069); assay: Surface plasmon resonance (BIAcore) binding kinetics and affinity on immobilized IGF-IR
T1 construct: The extracellular domain of human IGF-IR (aa 1-932) was cloned into a mammalian expression vector; made in house
Procedure: The binding kinetics of fibronectin-based scaffold proteins binding proteins to the target was measured using BIAcore 2000 or 3000 biosensors (Pharmacia Biosensor). A capture assay was developed utilizing an IGF-IR-Fc fusion. A similar reagent had been described by Forbes et al. (Forbes et al. 2002, European J. Biochemistry, 269, 961-968). The extracellular domain of human IGF-IR (aa 1-932) was cloned into a mammalian expression vector containing the hinge and constant regions of human IgG1. Transient transfection of the plasmid produced a fusion protein, IGF-IR-Fc which was subsequently purified by Protein A chromatography and captured on Protein A immobilized on Biasensor CM5 chips by amine coupling. The kinetic analysis involved the capture of IGF-IR-Fc on Protein A followed by injection of the fibronectin-based scaffold protein in solution and regeneration of the Protein A surface by glycine pH 2.0. Sensorgrams were obtained at each concentration and were evaluated using a program Biaevaluation, BIA Evaluation 2.0 (BIAcore), to determine the rate constants ka (kon) and kd (koff) The dissociation constant, KD was calculated from the ratio of rate constants koff/kon. Typically, a concentration series (2 uM to 0 uM) of purified fibronectin-based scaffold protein was evaluated for binding to protein A captured human IGF-IR-Fc fusion protein.

[1] = system: human plasmacytoma cell line NCI-H929; assay: NCI-H929 cell proliferation assay (serum mediated proliferation); format: cell-based; settings: at all concentrations tested
Procedure: The human plasmacytoma cell line NCI-H929 (ATCC, Manassas, Va.) was plated in 96 well plates at a concentration of either 10000 or 25000 cells per well in DMEM (Invitrogen, Carlsbad, Calif.) containing 10% fetal bovine serum (Hyclone, Logan, Utah) containing various concentrations of IGF-IR antagonists. Cells were allowed to proliferate for 72 hours at 37° C., 5% CO2. After the proliferation period, cells were exposed to 20 μL of Cell Titer 96 Aqueous Proliferation Reagent (Promega, Madison, Wis.) and allowed to incubate for an additional four hours. Absorbance at 490 nm was measured on a Spectramax Plus 384 (Molecular Devices, Sunnyvale, Calif.), and the resulting data were analyzed using SigmaPlot (Systat Software, Point Richmond, Calif.).

RH41 sarcoma xenografts = assay: In vivo antitumor activity in RH41 sarcoma xenografts; settings: 40 mg/kg, TIWx3, 20 ip
Procedure: *Tumor growth inhibition and probability values calculated on day 39. ^aVehicle was 80% PEG400, 20% dH2O. ^bVehicle was PBS. ^cAverage weight change for each group is the mean difference between weight at the start of treatment (Day 20) and after the end of treatment (Day 42). TVDT was calculated for a size of 500 mg Abbreviations used are as follows: po, oral route; ip, intraperitoneal route; LCK, gross log cell kill calculated as LCK=T−C/(3.32×TVDT) where T-C is the difference in time in days for the treated tumors (T) to reach a predetermined size (tumor target size) relative to the vehicle control group (C) divided by the tumor volume doubling time (TVDT) multiplied by 3.32.
Tumors were propagated in nude mice. Tumor passages occurred every four weeks for human RH41 xenografts. With regard to efficacy testing human tumor xenografts were implanted in nude mice. All tumor passages were subcutaneous (sc).
Antitumor activity was evaluated in terms of: a) cures, and for the murine tumor models, increases in lifespan reflected by the relative median survival time (MST) of treated (T) versus control (C) groups (i.e. % T/C values); and b) primary tumor growth inhibition determined by calculating the relative median times for T and C mice to grow tumors of a predetermined “target” size (1 gm for all sc tumor models described) and expressed as T-C values, in days. The definition of a cured mouse was one whose tumor was undetectable, or <35 mg, when assessed more than 10 tumor volume doubling times (TVDTs) post-treatment. The activity criterion for tumor inhibition/reduction was a statistically significant delay in primary tumor growth consistent with 1 gross log cell kill (LCK). The following formula was employed to calculate LCK: LCK=T−C/(3.32×TVDT)
Where, TVDT=median time (days) for control tumors to reach target size—median time (days) for control tumors to reach half the target size. […] The maximum tolerated dose (MTD) is defined as the dose level immediately […] which excessive toxicity (i.e. more than one death) occurred. […] Statistical evaluations of data were performed using Gehan's generalized Wilcoxon test (Gehan, Biometrika 52:203-223, 1965). Western Blot Analysis of 385A08-Fc

B1: 385A08-PEG20-385A08: two 385A08 (SEQ ID NO: 203) domains coupled via Cys97 to a linear 20 kDa bifunctional PEG (conjugate)
chain 1: GVSDVPRDLEVVAATPTSLLISWSARLKVARYYRITYGETGGNSPVQEFTVPKNVYTATISGLKPGVDYTITVYAVTRFRDYQPISINYRTEIDKPCQ
chain 2: GVSDVPRDLEVVAATPTSLLISWSARLKVARYYRITYGETGGNSPVQEFTVPKNVYTATISGLKPGVDYTITVYAVTRFRDYQPISINYRTEIDKPCQ
modifications: 20 kDa bifunctional PEG via Cys97
Q: With B1 as the molecule, how does the “faster on-rate (ka) relative to unmodified 385A08” value (human IGF-IR) read?
A: approximately two-fold

Q: What about the “off-rate (kd) relative to unmodified 385A08” value (human IGF-IR) of the same molecule?
A: slightly decreased

Q: What about the ka (human IGF-IR; Table 10, PEGylated variants) of the same molecule?
A: 15 1/M*s × 10^+6

Q: What about the kd (human IGF-IR; Table 10, PEGylated variants) of the same molecule?
A: 0.9 1/s × 10^−4

Q: What about the “inhibition of cell growth” value [1] of the same molecule?
A: approximately 100%

Q: And the “Outcome by (% TGI)” value (RH41 sarcoma xenografts)?
A: A (A % TGI value of >50% was considered active)

Q: What about the “% TGI” value (RH41 sarcoma xenografts; calculated on day 39) of the same molecule?
A: 66%

Q: What about the LCK (RH41 sarcoma xenografts; gross log cell kill) of the same molecule?
A: 0.6
